According to patent publication US20030100484A1:

Biological target: urotensin II receptor (human) (UniProt Q9UKP6)
Assay: cell-based or functional assay

UniProt Q9UKP6, sequence (Q9UKP6 whole entry): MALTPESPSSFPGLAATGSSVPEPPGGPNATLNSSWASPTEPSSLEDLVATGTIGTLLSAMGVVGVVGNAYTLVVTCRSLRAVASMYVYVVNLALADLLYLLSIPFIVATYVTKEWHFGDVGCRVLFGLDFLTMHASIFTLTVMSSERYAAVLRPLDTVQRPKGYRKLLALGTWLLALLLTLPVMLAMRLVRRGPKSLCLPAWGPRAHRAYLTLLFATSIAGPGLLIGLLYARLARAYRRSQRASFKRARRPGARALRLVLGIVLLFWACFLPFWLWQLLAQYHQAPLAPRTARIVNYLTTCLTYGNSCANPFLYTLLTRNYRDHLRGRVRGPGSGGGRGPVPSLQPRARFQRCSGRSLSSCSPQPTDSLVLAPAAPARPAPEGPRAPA

CTGF mRNA (real-time PCR, GAPDH mRNA as reference) in human heart fibroblasts after 6 h with 1 µM urotensin II; control 0.45 +/- 0.27 (relative to GAPDH mRNA): 0.88
Col 1 mRNA (real-time PCR, GAPDH mRNA as reference) in human heart fibroblasts after 6 h with 1 µM urotensin II; control 0.56 +/- 0.1 (relative to GAPDH mRNA): 0.92
MMP 2 mRNA (real-time PCR, GAPDH mRNA as reference) in human heart fibroblasts after 6 h with 1 µM urotensin II; control 0.43 +/- 0.2 (relative to GAPDH mRNA): 0.65
TGFbeta1 mRNA (real-time PCR, GAPDH mRNA as reference) in human heart fibroblasts after 6 h with 1 µM urotensin II; control 0.60 +/- 0.09 (relative to GAPDH mRNA): 0.81
Substance: urotensin II (from UniProt O95399 114-124) (peptide)
